What was measured:
[1] = molecular target: FbxwD-FLAG (endogenous locus tagged) (D. discoideum); test: co-IP; FbxwD-FLAG precipitated with anti-FLAG M2 magnetic beads from S21 lysates of phyA+ or phyA– vegetative or slug cells, 4 °C 1 h; Skp1 detected by Western blot (pAb UOK77), densitometry
[2] = molecular target: JcdI-FLAG (endogenous locus tagged) (D. discoideum) (UniProt Q55CL5); test: co-IP; FLAG-JcdI or JcdI-FLAG precipitated with anti-FLAG M2 beads from NP-40 lysates of vegetative or slug cells, 4 °C 1 h, washed in 50 mM Tris-HCl pH 8.0, 150 mM NaCl, 0.2% NP-40; Skp1 detected by Western blot
Chain of UniProt Q55CL5 (Q55CL5 entry or part of it): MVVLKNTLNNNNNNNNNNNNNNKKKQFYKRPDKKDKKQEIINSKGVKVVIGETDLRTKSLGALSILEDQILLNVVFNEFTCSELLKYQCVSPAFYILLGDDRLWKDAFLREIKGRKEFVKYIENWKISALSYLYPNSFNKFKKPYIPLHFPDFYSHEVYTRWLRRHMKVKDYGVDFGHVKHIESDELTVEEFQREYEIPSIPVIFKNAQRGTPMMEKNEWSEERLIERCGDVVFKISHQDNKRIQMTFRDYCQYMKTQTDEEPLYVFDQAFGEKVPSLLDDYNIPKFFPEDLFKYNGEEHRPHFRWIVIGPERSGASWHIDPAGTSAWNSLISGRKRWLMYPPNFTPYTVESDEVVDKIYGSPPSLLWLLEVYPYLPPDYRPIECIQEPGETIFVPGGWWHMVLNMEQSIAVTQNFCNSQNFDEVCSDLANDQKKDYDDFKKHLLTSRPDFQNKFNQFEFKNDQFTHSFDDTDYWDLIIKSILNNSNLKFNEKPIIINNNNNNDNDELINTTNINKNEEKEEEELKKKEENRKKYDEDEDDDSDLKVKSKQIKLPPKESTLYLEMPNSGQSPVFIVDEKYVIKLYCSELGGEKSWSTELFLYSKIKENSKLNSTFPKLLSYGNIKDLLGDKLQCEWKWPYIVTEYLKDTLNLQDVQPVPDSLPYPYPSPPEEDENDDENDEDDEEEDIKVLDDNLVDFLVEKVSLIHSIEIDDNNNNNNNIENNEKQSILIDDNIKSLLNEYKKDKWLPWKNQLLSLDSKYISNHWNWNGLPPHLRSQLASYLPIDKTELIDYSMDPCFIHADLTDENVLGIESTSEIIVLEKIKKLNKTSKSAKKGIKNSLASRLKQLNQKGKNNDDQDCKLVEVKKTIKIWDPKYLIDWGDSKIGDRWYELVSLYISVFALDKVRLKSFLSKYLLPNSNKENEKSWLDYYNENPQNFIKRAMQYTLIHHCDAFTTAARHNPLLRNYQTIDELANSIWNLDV

fold more Skp1 co-IPed with FbxwD-FLAG, phyA+ versus phyA– slug cells [1]: 4 fold | fold more Skp1 co-IPed with FbxwD-FLAG, phyA+ versus phyA– vegetative cells [1]: 2.5 fold | fold more Skp1 (Skp1:JcdI ratio) co-IPed with JcdI-FLAG, gnt1+ versus gnt1– vegetative cells [2]: 2 fold | fold preferential interaction with JcdI-FLAG, gnt1+ versus gnt1– slug cells [2]: 2 fold
Substance: Skp1 (endogenous, from phyA+ / gnt1+ cells; hydroxylated and glycosylated) (from UniProt P52285 1-162) (natural protein)

— PMC9485057
